This note sets out measurements from patent publication US20190040127A1 (University of California, published 2019).

The target of test [1] is T1, Epithelial Membrane Protein 2 (EMP2) (human, UniProt P54851 1-167).
T1 construct: Endogenous EMP2 on SUM149 or MDA-MB-468 breast cancer cells
T1 sequence: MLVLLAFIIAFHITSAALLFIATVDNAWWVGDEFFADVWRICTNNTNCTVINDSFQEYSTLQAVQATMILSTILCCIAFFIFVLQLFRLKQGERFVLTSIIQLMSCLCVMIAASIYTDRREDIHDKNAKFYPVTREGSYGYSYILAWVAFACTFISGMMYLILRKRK
Put plainly: flow cytometry on SUM149 cells, nonlinear regression (FIG. 4). The method, then: (§1) A comparison of anti-EMP2 Variant 1 and PG-101 binding affinity for EMP2 was carried out. […] PG-101 and Variant 1 binding to EMP2 was determined using SUM149 and flow cytometry. Variant 1 retains binding to EMP2 with improved affinity. Flow cytometry was used to determine the ability of both antibodies to bind to EMP2 on SUM149 cells.
For orientation: In flow cytometry, cells or beads pass a laser one at a time.

The target of test [2] is T1, Epithelial Membrane Protein 2 (EMP2). Put plainly: flow cytometry on SUM149 cells (FIG. 4). As for the experimental part: as §1
For test [3] the target is unchanged. Put plainly: flow cytometry on MDA-MB-468 cells (FIG. 2).

Numbering of substitutions follows the chain as printed.

B1: PG-101 Parental (antibody, human IgG1, kappa, V domains shown)
VH: QVQLVQSGGGVVQPGRSLRLSCAASGFTFSSYAMHWVRQAPGKGLEWVAVISYDGSNKYYADSVKGRFTISRDNSKNTLYLQMNSLRAEDTAVYYCARDRRGRKSAGIDYWGQGTLVTVSS
VL: DIQMTQSPSSLSASVGDRVTITCQASQDISNYLNWYQQKPGKAPKLLIYAASSLQSGVPSRFSGSGSGTDFTLTISSLQPEDFATYYCLQDYNGWTFGQGTKVDIKR
notes: Full IgG1/kappa made in HEK293 cells; also called parental antibody
One may read the Kd as the free concentration of one partner at which half of the binding sites on the other are occupied at equilibrium, for simple one-to-one binding. Low readings indicate a tighter complex, high ones a looser complex. With B1, in test [1], the Kd is 2.6 µg/mL.

B2: PG-101 Variant 1 (antibody, human IgG1, kappa, V domains shown)
VH: B1 VH
VL: B1 VL with N93S
notes: Full IgG1/kappa made in HEK293 cells; also called anti-EMP2 Variant 1; PG-201
In the case of B2, in test [2], the “fold increase in binding against the parental antibody PG-101” value was above 2 fold.

B3: PG-101 Variant 2 (antibody, human IgG1, kappa, V domains shown)
VH: B1 VH
VL: B1 VL with G94L
notes: Full IgG1/kappa made in HEK293 cells
B3: in test [3], the binding result was “binds”.
